{
  "source": "patent US20210292396A1",
  "binders": {"B1": {"name": "ePGT121.15 (ePGT121.15.H6 VH and ePGT121.15.L1 VL) (antibody, V domains shown)", "VH": "QMQLQESGPGLVKPGETLSLTCSVSGASISSSYWSWLRETPGKGLEWIGYTHHSGDTNYAPSLKSRVHLGLHPSKNQVSLSLTSVTAADTAVYYCARTLHGRRIYGVVAFNEFFTYFYWEVWGKGTQVTVSS", "VL": "SDISVAPGETVRISCGGESIGSRAVQWYQHRAGQAPKLIIYNNQDRPPGIPERFSGSPDIDFGTTATLTITNVEAGDEATYYCHIWDSRRPTNWVFGGGTTLTVL"}},
  "assay_in_all_cases": "cell-based or functional assay",
  "key": {"[1]": {"target": "Env of HIV isolate TRJO.58 (clade B) (HIV)"}, "[2]": {"target": "Env of HIV isolate MI369.A5 (clade A) (HIV)"}, "[3]": {"target": "Env of HIV isolate C2101.c1 (clade AE) (HIV)"}, "[4]": {"target": "Env of HIV isolate CAP210.E8 (clade C) (HIV)"}, "[5]": {"target": "HIV Env of isolate 3637.v5.c3 (HIV)"}, "[6]": {"target": "HIV Env of isolate CE703010217.B6 (HIV)"}, "[7]": {"target": "HIV Env of isolate 6785.v5.c14 (HIV)"}, "[8]": {"target": "Env of HIV isolate BS208.B1 (clade A) (HIV)"}, "[9]": {"target": "HIV Env of isolate X1254.c3 (HIV)"}, "[10]": {"target": "Env of HIV isolate SF162.LS (clade B) (HIV)"}, "[11]": {"target": "Env of HIV isolate 6838.v1.c35 (clade C) (HIV)"}, "[12]": {"target": "Env of HIV isolate TRO.11 (clade B) (HIV)"}, "[13]": {"target": "HIV Env of isolate 16936-2.21 (HIV)"}, "[14]": {"target": "HIV Env of isolate 6322.v4.c1 (HIV)"}, "[15]": {"target": "Env of HIV isolate TH976.17 (clade AE) (HIV)"}, "[16]": {"target": "Env of HIV isolate CNE30 (clade C in Table 7) (HIV)"}, "[17]": {"target": "HIV Env of isolate X2131.C1.B5 (HIV)"}, "[18]": {"target": "Env of HIV isolate MS208.A1 (clade A) (HIV)"}, "[19]": {"target": "Env of HIV isolate ZA012.29 (clade C) (HIV)"}, "[20]": {"target": "Env of HIV isolate BB201.B42 (clade A) (HIV)"}, "[21]": {"target": "Env of HIV isolate NKU3006.ec1 (clade D) (HIV)"}, "[22]": {"target": "Env of HIV isolate X2278.C2.B6 (clade B) (HIV)"}, "[23]": {"target": "HIV Env of isolate Ce1176.A3 (HIV)"}, "[24]": {"target": "Env of HIV isolate T251-18 (clade AG) (HIV)"}, "[25]": {"target": "Env of HIV isolate CNE59 (clade AE) (HIV)"}, "[26]": {"target": "HIV Env of isolate NKU3006.ec1 (HIV)"}, "[27]": {"target": "Env of HIV isolate BJOX010000.06.2 (clade AE) (HIV)"}, "[28]": {"target": "Env of HIV isolate BaL.26 (clade B) (HIV)"}, "[29]": {"target": "Env of HIV isolate QH209.14M.A2 (clade A) (HIV)"}, "[30]": {"target": "Env of HIV isolate ZM176.66 (clade C) (HIV)"}, "[31]": {"target": "Env of SIVmac251.30.SG3"}, "[32]": {"target": "Env of HIV isolate T278-50 (clade AG) (HIV)"}, "[33]": {"target": "HIV Env of isolate 00836-2.5 (HIV)"}, "[34]": {"target": "HIV Env of isolate X1632.S2.B10 (HIV)"}, "[35]": {"target": "Env of HIV isolate THRO.18 (clade B) (HIV)"}, "[36]": {"target": "HIV Env of isolate 231965.c01 (HIV)"}, "[37]": {"target": "HIV Env of isolate CAP256.206.C9 (HIV)"}, "[38]": {"target": "HIV Env of isolate 25925-2.22 (HIV)"}, "[39]": {"target": "Env of HIV isolate Bal.01 (clade B) (HIV)"}, "[40]": {"target": "HIV Env of isolate 288.38 (HIV)"}, "[41]": {"target": "HIV Env of isolate 247-23 (HIV)"}, "[42]": {"target": "Env of HIV isolate 246-F3.C10.2 (clade AC) (HIV)"}, "[43]": {"target": "Env of HIV isolate 3637.v5.c3 (clade C) (HIV)"}, "[44]": {"target": "Env of HIV isolate TH966.8 (clade AE) (HIV)"}, "[45]": {"target": "Env of HIV isolate T255-34 (clade AG) (HIV)"}, "[46]": {"target": "Env of HIV isolate 0815.v3.c3 (clade ACD) (HIV)"}, "[47]": {"target": "HIV Env of isolate 96ZM651.02 (HIV)"}, "[48]": {"target": "HIV Env of isolate 001428-2.42 (HIV)"}, "[49]": {"target": "HIV Env of isolate 3873.v1.c24 (HIV)"}},
  "data": [
    {"binder": "B1", "values": [
      {"measurement": "IC50, pseudovirus neutralization", "setting": "[1]", "result": 0.007, "unit": "µg/mL"},
      {"measurement": "IC50, pseudovirus neutralization", "setting": "[2]", "result": 0.004, "unit": "µg/mL"},
      {"measurement": "IC50, pseudovirus neutralization", "setting": "[3]", "result": "> 50", "unit": "µg/mL"},
      {"measurement": "IC50, pseudovirus neutralization", "setting": "[4]", "result": 0.052, "unit": "µg/mL"},
      {"measurement": "IC80, pseudovirus neutralization", "setting": "[5]", "result": "> 50", "unit": "µg/mL"},
      {"measurement": "IC80, pseudovirus neutralization", "setting": "[6]", "result": 0.012, "unit": "µg/mL"},
      {"measurement": "IC80, pseudovirus neutralization", "setting": "[7]", "result": 0.01, "unit": "µg/mL"},
      {"measurement": "IC50, pseudovirus neutralization", "setting": "[8]", "result": "> 50", "unit": "µg/mL"},
      {"measurement": "IC80, pseudovirus neutralization", "setting": "[9]", "result": 0.009, "unit": "µg/mL"},
      {"measurement": "IC50, pseudovirus neutralization", "setting": "[10]", "result": 0.003, "unit": "µg/mL"},
      {"measurement": "IC50, pseudovirus neutralization", "setting": "[11]", "result": 0.234, "unit": "µg/mL"},
      {"measurement": "IC50, pseudovirus neutralization", "setting": "[12]", "result": 0.003, "unit": "µg/mL"},
      {"measurement": "IC80, pseudovirus neutralization", "setting": "[13]", "result": 0.007, "unit": "µg/mL"},
      {"measurement": "IC80, pseudovirus neutralization", "setting": "[14]", "result": "> 50", "unit": "µg/mL"},
      {"measurement": "IC50, pseudovirus neutralization", "setting": "[15]", "result": "> 50", "unit": "µg/mL"},
      {"measurement": "IC50, pseudovirus neutralization", "setting": "[16]", "result": 0.008, "unit": "µg/mL"},
      {"measurement": "IC80, pseudovirus neutralization", "setting": "[17]", "result": 0.004, "unit": "µg/mL"},
      {"measurement": "IC50, pseudovirus neutralization", "setting": "[18]", "result": "> 50", "unit": "µg/mL"},
      {"measurement": "IC50, pseudovirus neutralization", "setting": "[19]", "result": 0.004, "unit": "µg/mL"},
      {"measurement": "IC50, pseudovirus neutralization", "setting": "[20]", "result": 0.003, "unit": "µg/mL"},
      {"measurement": "IC50, pseudovirus neutralization", "setting": "[21]", "result": "> 50", "unit": "µg/mL"},
      {"measurement": "IC50, pseudovirus neutralization", "setting": "[22]", "result": 0.002, "unit": "µg/mL"},
      {"measurement": "IC80, pseudovirus neutralization", "setting": "[23]", "result": 0.01, "unit": "µg/mL"},
      {"measurement": "IC50, pseudovirus neutralization", "setting": "[24]", "result": 0.056, "unit": "µg/mL"},
      {"measurement": "IC50, pseudovirus neutralization", "setting": "[25]", "result": "> 50", "unit": "µg/mL"},
      {"measurement": "IC80, pseudovirus neutralization", "setting": "[26]", "result": "> 50", "unit": "µg/mL"},
      {"measurement": "IC50, pseudovirus neutralization", "setting": "[27]", "result": "> 50", "unit": "µg/mL"},
      {"measurement": "IC50, pseudovirus neutralization", "setting": "[28]", "result": 0.003, "unit": "µg/mL"},
      {"measurement": "IC50, pseudovirus neutralization", "setting": "[29]", "result": "> 50", "unit": "µg/mL"},
      {"measurement": "IC50, pseudovirus neutralization", "setting": "[30]", "result": 0.073, "unit": "µg/mL"},
      {"measurement": "IC80, pseudovirus neutralization", "setting": "[31]", "result": "> 50", "unit": "µg/mL"},
      {"measurement": "IC50, pseudovirus neutralization", "setting": "[32]", "result": 4.87, "unit": "µg/mL"},
      {"measurement": "IC80, pseudovirus neutralization", "setting": "[33]", "result": "> 50", "unit": "µg/mL"},
      {"measurement": "IC80, pseudovirus neutralization", "setting": "[34]", "result": "> 50", "unit": "µg/mL"},
      {"measurement": "IC50, pseudovirus neutralization", "setting": "[35]", "result": "> 50", "unit": "µg/mL"},
      {"measurement": "IC80, pseudovirus neutralization", "setting": "[36]", "result": "> 50", "unit": "µg/mL"},
      {"measurement": "IC80, pseudovirus neutralization", "setting": "[37]", "result": 0.006, "unit": "µg/mL"},
      {"measurement": "IC80, pseudovirus neutralization", "setting": "[38]", "result": 0.013, "unit": "µg/mL"},
      {"measurement": "IC50, pseudovirus neutralization", "setting": "[39]", "result": 0.002, "unit": "µg/mL"},
      {"measurement": "IC80, pseudovirus neutralization", "setting": "[40]", "result": 0.005, "unit": "µg/mL"},
      {"measurement": "IC80, pseudovirus neutralization", "setting": "[41]", "result": "> 50", "unit": "µg/mL"},
      {"measurement": "IC50, pseudovirus neutralization", "setting": "[42]", "result": 11.6, "unit": "µg/mL"},
      {"measurement": "IC50, pseudovirus neutralization", "setting": "[43]", "result": "> 50", "unit": "µg/mL"},
      {"measurement": "IC50, pseudovirus neutralization", "setting": "[44]", "result": "> 50", "unit": "µg/mL"},
      {"measurement": "IC50, pseudovirus neutralization", "setting": "[45]", "result": 0.045, "unit": "µg/mL"},
      {"measurement": "IC50, pseudovirus neutralization", "setting": "[46]", "result": 0.002, "unit": "µg/mL"},
      {"measurement": "IC80, pseudovirus neutralization", "setting": "[47]", "result": 0.004, "unit": "µg/mL"},
      {"measurement": "IC80, pseudovirus neutralization", "setting": "[48]", "result": 0.005, "unit": "µg/mL"},
      {"measurement": "IC80, pseudovirus neutralization", "setting": "[49]", "result": 0.011, "unit": "µg/mL"}
    ]}
  ]
}
